Experiments:
TEV protease [1] = target: T1, TEV protease (Tobacco etch virus, UniProt P04517); assay: TEV protease FP assay with homodimer-forming reporter peptide; assay type: biochemical; conditions: substrate: fluorescein/biotin-labeled reporter peptide homodimer; FIG. 10; read-out: Km of TEV protease by FP analysis
T1 construct: Proteolytic cleavage was initiated by the addition of TEV protease (20U, Gibco Life Technologies); histidine tag; purchased Gibco Life Technologies
Experimental: (§1) TEV protease activity and inhibition of TEV protease activity was determined by using a peptide capable of forming a homodimer, wherein homodimer formation is decreased following TEV protease cleavage of the peptide, according to the following method.
For FP analysis the reporter peptide (sequence recited above) was labeled with fluorescein or with biotin. The labeled peptides were incubated at a total peptide concentration of 6 μM (6:1 ratio, biotin:F) in 50 mM Tris, pH 8, 0.5 mM EDTA, 0.1 mg/ml BSA and 1 mM DTT at 30° C. for 5 minutes in a total volume of 100 μl. Proteolytic cleavage was initiated by the addition of TEV protease (20U), and monitored during the reaction time course by measuring the polarization of fluorescein (excitation 485 nm, emission 520 nm) over time. Initial rates of change of fluorescein polarization were determined for the linear portion of the reaction.
(§2) The activity of the TEV protease inhibitor iodacetamide was determined by FRET or FP assays performed as described above in the absence of iodacetamide or in the presence of 0.05-100 mM iodacetamide added prior to the addition of TEV protease. The results of these experiments are presented in FIG. 9 (FRET assay) and FIG. 11 (FP assay).

TEV protease [2] = target: T1, TEV protease; assay: TEV protease FRET assay with homodimer-forming reporter peptide; assay type: biochemical; conditions: substrate: fluorescein/rhodamine-labeled reporter peptide homodimer; FIG. 8; read-out: Km of TEV protease by FRET analysis
Experimental: as §1
For FRET analysis the reporter peptide (KGR MRCLEDR VENLYSQ SYHLENE VARLRRL VGELAAK) (SEQ ID NO: 32) was labeled with fluorescein or rhodamine. The labeled peptides were incubated at a total peptide concentration of 6 μM (6:1 ratio, R:F) in 50 mM Tris pH 8, and 0.5 mM EDTA, and 1 mM DTT at 30° C. for 15 minutes in a total volume of 100 μl. Proteolytic cleavage was initiated by the addition of TEV protease (20U, Gibco Life Technologies), and monitored during the time course of the reaction by measuring the emission of fluorescein (excitation 485 nm, emission 520 nm) over time. Initial rates of change of fluorescein emission were determined for the linear portion of the reaction.
as §2

B1: TEV protease: Tobacco Etch Virus protease, Gibco Life Technologies (protein)
chain: GESLFKGPRDYNPISSTICHLTNESDGHTTSLYGIGFGPFIITNKHLFRRNNGTLLVQSLHGVFKVKNTTTLQQHLIDGRDMIIIRMPKDFPPFPQKLKFREPQREERICLVTTNFQTKSMSSMVSDTSCTFPSSDGIFWKHWIQTKDGQCGSPLVSTRDGFIVGIHSASNFTNTNNYFTSVPKNFMELLTNQEAQQWVSGWRLNADSVLWGGHKVFMSKPEEPFQPVKEATQLMNELVYSQ
B1 showed a Km (TEV protease [1]) of 36 µM and a Km (TEV protease [2]) of 36 µM.

Source: US6828106B2, “Methods and compositions using coiled binding partners” (Cyclacel Limited, priority 1999, dated 2004)
